Results reported in publication PMC314469, “Protein Interaction Networks by Proteome Peptide Scanning” (PLoS Biology, 2004).

T1: Yhr016c SH3 (YSC84_YEAST), P32793
T1 chain: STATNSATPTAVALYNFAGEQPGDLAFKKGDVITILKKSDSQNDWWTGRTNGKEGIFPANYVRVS

T2: Rvs167 SH3 (RV167_YEAST), P39743
T2 chain: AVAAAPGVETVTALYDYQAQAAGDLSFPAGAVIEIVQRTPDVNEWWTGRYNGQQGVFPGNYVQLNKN

T3: Boi1 SH3 (BOI1_YEAST), P38041
T3 chain: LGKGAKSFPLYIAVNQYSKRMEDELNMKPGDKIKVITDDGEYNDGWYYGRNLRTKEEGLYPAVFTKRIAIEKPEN

T4: Myo5 SH3 (MYO5_YEAST), Q04439
T4 chain: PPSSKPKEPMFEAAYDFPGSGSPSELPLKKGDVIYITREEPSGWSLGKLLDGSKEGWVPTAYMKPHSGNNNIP

T5: Boi2 SH3 (BOI2_YEAST), P39969
T5 chain: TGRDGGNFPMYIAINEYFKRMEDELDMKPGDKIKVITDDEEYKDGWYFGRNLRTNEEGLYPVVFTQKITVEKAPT

T6: Yfr024 SH3 (LSB3_YEAST), P43603
T6 chain: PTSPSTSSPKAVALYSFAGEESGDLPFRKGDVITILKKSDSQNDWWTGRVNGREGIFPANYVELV


Assays:
Experiment in all cases: SPOT array
[1] = molecular target: T1, Yhr016c SH3 (YSC84_YEAST), P32793
[2] = molecular target: T2, Rvs167 SH3 (RV167_YEAST), P39743
[3] = molecular target: T3, Boi1 SH3 (BOI1_YEAST), P38041
[4] = molecular target: Sho1 SH3 (SHO1_YEAST), P40073
[5] = molecular target: T4, Myo5 SH3 (MYO5_YEAST), Q04439
[6] = molecular target: T5, Boi2 SH3 (BOI2_YEAST), P39969
[7] = molecular target: T6, Yfr024 SH3 (LSB3_YEAST), P43603

Sequence of Sho1 SH3 (SHO1_YEAST), P40073 (P40073 295-366): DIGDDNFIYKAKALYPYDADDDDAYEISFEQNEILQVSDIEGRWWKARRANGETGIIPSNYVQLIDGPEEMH

normalised SPOT signal, Boehringer light units (BLU); mean over the file's lines of this peptide [1] | normalised SPOT signal, Boehringer light units (BLU); mean over the file's lines of this peptide [2] | normalised SPOT signal, Boehringer light units (BLU); mean over the file's lines of this peptide [3] | normalised SPOT signal, Boehringer light units (BLU); mean over the file's lines of this peptide [4] | normalised SPOT signal, Boehringer light units (BLU); mean over the file's lines of this peptide [5] | normalised SPOT signal, Boehringer light units (BLU); mean over the file's lines of this peptide [6] | normalised SPOT signal, Boehringer light units (BLU); mean over the file's lines of this peptide [7] | Binder
32.8 | 201 | 1330 | 118 | 345 | 23.2 | 159 | YVYGRQDPKKPFFT [YNL137C 410-423]
74.6 | 25.5 | 418 | 51.5 | 188 | 52.6 | 115 | AFYYKYYPVEPNSN [YFR020W 150-163]
324 | 350 | 678 | 460 | 385 | 266 | 1160 | YWGKKFEPERPFEF [YJR137C 1187-1200]
765 | 490 | 174 | 2350 | 180 | 59.5 | 952 | YVNPRNLPSVPNGL [YLR418C 264-277]
14.3 | 21.2 | 62.8 | 163 | 60.3 | 9 | 0 | AGHIKTHPNSPTPG [YKL064W 452-465]
16.1 | 69.2 | 133 | 59.5 | 86.7 | 15.8 | 6 | ADDLKYIPPIPQDF [YOR264W 26-39]
253 | 310 | 227 | 59.1 | 288 | 273 | 391 | YYYYKHYPNMPPIN [YMR313C 453-466]
39.5 | 33.5 | 234 | 332 | 194 | 28.9 | 163 | YVVKKNFPVSPNYT [YMR015C 408-421]
17.8 | 41.1 | 71.4 | 29.3 | 97.1 | 10.8 | 91.6 | YVNAKLDPSLPSQY [YDR147W 90-103]
112 | 72.6 | 110 | 900 | 65 | 64.4 | 303 | AFWWKKNPKTPSDY [YKL189W 13-26]
99.5 | 115 | 94.5 | 138 | 188 | 54.3 | 94.4 | YSYLRLLPWWPSLA [YJL083W 456-469]
32.3 | 163 | 17.5 | 63.5 | 15900 | 17.8 | 330 | YVKERRPPPPPPLL [YLR425W 99-112]
47.2 | 294 | 2730 | 78.9 | 1740 | 16.6 | 718 | AFVPKRKPSLPQLA [YLR371W 185-198]
0 | 4 | 925 | 173 | 389 | 42.3 | 44.4 | AERAKKAPSLPEGQ [YJR016C 376-389]
55.1 | 106 | 107 | 32.5 | 281 | 79.2 | 184 | AALVKFVPSKPMSV [YBR118W 397-410]
8.4 | 99.2 | 155 | 39.3 | 102 | 30.2 | 2 | AEIVKLTPKNPFYK [YGL056C 180-193]
